Measurements: the supplement of paper PMC7877785
± gives the uncertainty stated by the source.

Assay: self-splicing fitness, log relative to wild type (ln ratio); higher = more splicing; Tetrahymena group I intron in knt gene, E. coli kanamycin selection, DiMSum; sequences stand for … in CUCUCU…GGAGGGAAAAGUUAUCAGGCAUGCACCUGGUAGCUAGUCUUUAAACCAAUAGAUUGCAUCGGUUUAAAAGGCAAGACCGUCAAAUUGCGGGAAAGGGGUCAACAGCCGUUCAGUACCAAGUCUCAGGGGAAACUUUGAGAUGGCCUUGCAAAGGGUAUGGUAAUAAGCUGACGGACAUGGUCCUAACCACGCAGCCAAGUCCUAAGUCAACAGAUCUUCUGUUGAUAUGGAUGCAGUUCACAGACUAAAUGUCGGUCGGGGAAGAUGUAUUCUUCUCAUAAGAUAUAGUCGGACCUCUCCUUAAUGGGAGCUAGCGGAUGAAGUGAUGCAACACUGGAGCCGCUGGGAACUAAUUUGUAUGCGAAAGUAUAUUGAUUAGUUUUGGAGUACUCGUGGUCG
Procedure, shortened: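 A randomised library covering all eight P1ex-region intron nucleotides was built with the intron in the knt kanamycin-resistance gene on pET-22b(+) and held in E. coli BL21(DE3). Cells were grown overnight at 37°C or 30°C on LB agar, with or without 25 μg/mL kanamycin, plus 100 μg/mL carbenicillin, 50 μM IPTG and 0.2% rhamnose, and pooled colonies were amplicon-sequenced on an Illumina HiSeq 2500. DiMSum fitness is the error-weighted combination of wild-type-normalised replicate fold changes, kanamycin versus none.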

Row | Sequence | self-splicing fitness (ln) (30 °C) | self-splicing fitness (ln) (37 °C)
1 | ACCUAGCAAUAUUACGGGUU | -2.78 ± 0.14 | -1.95 ± 0.14
2 | GCGAAGCAAUAUUACGUGCU | -2.63 ± 0.16 | -2.75 ± 0.2
3 | UCACAGCAAUAUUACGCCGG | -0.748 ± 0.13 | 0.108 ± 0.13
4 | GACCAGCAAUAUUACGCCCC | -1.35 ± 0.17 | -0.908 ± 0.17
5 | GAUUAGCAAUAUUACGCGGA | -3.19 ± 0.26 | -1.55 ± 0.15
6 | CACGAGCAAUAUUACGGCCG | -0.354 ± 0.094 | -0.105 ± 0.13
7 | GAGCAGCAAUAUUACGUAGU | -3.35 ± 0.19 | -1.01 ± 0.15
8 | UGAUAGCAAUAUUACGCUUU | -3.56 ± 0.47 | -1.39 ± 0.15
9 | CCAUAGCAAUAUUACGCUUC |  | -2.24 ± 0.49
10 | AUAAAGCAAUAUUACGCUAC | -3.14 ± 0.25 | -2.99 ± 0.33
11 | AUAGAGCAAUAUUACGAAUA | -4.03 ± 0.47 | -2.1 ± 0.29
12 | AUUCAGCAAUAUUACGCCCG | -1.85 ± 0.34 | 
13 | CGGCAGCAAUAUUACGCGAG | -2.86 ± 0.14 | -2.37 ± 0.14
14 | AGCGAGCAAUAUUACGCCUA | -1.67 ± 0.18 | -1.89 ± 0.2
15 | UGACAGCAAUAUUACGGUUU | -1.07 ± 0.059 | -0.226 ± 0.073
16 | GGAAAGCAAUAUUACGCGAU | -2.98 ± 0.18 | -1.02 ± 0.17
17 | AUCUAGCAAUAUUACGACUC | -0.0532 ± 0.28 | 
18 | AUUCAGCAAUAUUACGCGCG | -0.817 ± 0.12 | 0.873 ± 0.15
19 | UAAAAGCAAUAUUACGCAAU | -3.58 ± 0.17 | -1.6 ± 0.13
20 | GAUCAGCAAUAUUACGCGGC | -3.7 ± 0.37 | -2.89 ± 0.4
21 | UAAAAGCAAUAUUACGAUUG | -1.18 ± 0.087 | -0.639 ± 0.11
22 | UGAGAGCAAUAUUACGGAUG | -3.61 ± 0.19 | -3.56 ± 0.29
23 | GACAAGCAAUAUUACGCCGG | -2.63 ± 0.32 | -1.92 ± 0.28
24 | ACGCAGCAAUAUUACGGACC | -1.95 ± 0.15 | 0.559 ± 0.18
25 | UCCCAGCAAUAUUACGACAU | -3.293 ± 0.018 | -2.13 ± 0.035

Row | Sequence | self-splicing fitness (ln) (30 °C) | self-splicing fitness (ln) (37 °C)
26 | AGUCAGCAAUAUUACGACCG | 0.0414 ± 0.095 | 0.085 ± 0.13
27 | UUGGAGCAAUAUUACGUGAC | -2.9 ± 0.41 | -0.119 ± 0.45
28 | AACGAGCAAUAUUACGCUAC |  | -1.86 ± 0.31
29 | UUAUAGCAAUAUUACGAAUC | -2.06 ± 0.4 | -1.85 ± 0.48
30 | UCCAAGCAAUAUUACGGGGA | -2.58 ± 0.15 | -1.27 ± 0.1
31 | UUUUAGCAAUAUUACGUAAC | -3.07 ± 0.31 | -1.57 ± 0.38
32 | UAGCAGCAAUAUUACGACCA | -0.457 ± 0.12 | 0.838 ± 0.17
33 | UUGGAGCAAUAUUACGCAUG | -3.5 ± 0.26 | -0.58 ± 0.13
34 | UAUUAGCAAUAUUACGAACC | -0.688 ± 0.36 | 
35 | CCCGAGCAAUAUUACGACCA |  | -1.35 ± 0.31
36 | GUGUAGCAAUAUUACGUACC | -1.2 ± 0.29 | -0.885 ± 0.37
37 | AAACAGCAAUAUUACGAACU | -0.252 ± 0.065 | -0.265 ± 0.077
38 | GCAGAGCAAUAUUACGAGCU | -4.1 ± 0.42 | -1.17 ± 0.26
39 | UUAGAGCAAUAUUACGUAGG | -2.7 ± 0.14 | -1.5 ± 0.15
40 | CUUAAGCAAUAUUACGCUUU | -3.13 ± 0.11 | -2.26 ± 0.15
41 | CCGCAGCAAUAUUACGACUG | -3.17 ± 0.14 | -1.71 ± 0.13
42 | UCUCAGCAAUAUUACGUUAU | -2.98 ± 0.095 | -2.8 ± 0.13
43 | UCCGAGCAAUAUUACGUACU | -3.69 ± 0.25 | -2.55 ± 0.34
44 | AAGAAGCAAUAUUACGCAAC | -1.53 ± 0.12 | -2.1 ± 0.18
45 | GUAAAGCAAUAUUACGUUAC | -1.15 ± 0.14 | -1.91 ± 0.21
46 | UAGUAGCAAUAUUACGCGGG | -4.02 ± 0.34 | -2.49 ± 0.39
47 | UUCGAGCAAUAUUACGAAGU |  | -1.57 ± 0.32
48 | AACCAGCAAUAUUACGCCAU | -2.81 ± 0.15 | -1.42 ± 0.11
49 | AGGUAGCAAUAUUACGGUUU | -0.613 ± 0.012 | -0.252 ± 0.033
